Assay results reported in article PMC4674680, “An in cellulo-derived structure of PAK4 in complex with its inhibitor Inka1” (Nature Communications, 2015).

B1: GST-iBox (Inka1 166–203) (domain or fragment)
chain: EAEDWTAALLNRGRSRQPLVLGDNCFADLVHNWMELPE
modifications: GST carrier left out. Limits 166-203 are the paper's, taken from the 4XBR fusion: Flag/SGS 1-12, iBox 13-50, EF linker 51-52, PAK4 278-591 from 53 (12+38+2+314=366). Entity position = paper number …
B2: iBox 23mer synthetic peptide (peptide)
peptide: AEDWTAALLNRGRSRQPLVLGDW
notes: synthetic peptide of the amino-terminal part of the human Inka1 iBox (iBox is 166–203); residues 178–189 are seen in the structure; also called iBox24; synthetic iBox 24mer peptide; source: synthetic peptide

Columns and labels:
[1] = molecular target: T1, 6His–PAK4cat (PAK4 286–591) (human, UniProt O96013 286-591); assay: kinase inhibition assay; 50 nM purified PAK4cat, 10 μM GST-Raf1S338 peptide, 10 μM ATP (γ32P), 25 mM HEPES pH 7.3, 50 mM KCl, 10 mM MgCl2, 30 °C, 20 min; inhibitor pre-incubated with the kinase on ice 10 min; values from the intercepts of the inhibition graphs; conditions: both partners purified
T1 construct: human PAK4 catalytic domain, residues 286–591, in pSY5 (His tagged); Residues 297–589 are seen in PDB 4XBU; also called purified PAK4; source: E. coli BL21-CodonPlus(DE3), purified (Ni-NTA; semi-automated Akta system for crystallization)
T1 sequence (O96013 286-591): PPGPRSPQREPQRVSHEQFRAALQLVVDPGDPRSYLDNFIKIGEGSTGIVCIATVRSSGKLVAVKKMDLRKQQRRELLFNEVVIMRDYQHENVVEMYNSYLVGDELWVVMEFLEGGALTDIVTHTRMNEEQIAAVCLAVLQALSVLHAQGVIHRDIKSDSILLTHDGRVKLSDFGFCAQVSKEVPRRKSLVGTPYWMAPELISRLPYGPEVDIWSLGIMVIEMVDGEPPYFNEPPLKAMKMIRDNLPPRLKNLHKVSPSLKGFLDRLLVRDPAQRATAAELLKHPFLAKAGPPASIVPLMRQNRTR

[2] = molecular target: T1, 6His–PAK4cat (PAK4 286–591); assay: crystal structure; in-vitro crystals, hanging drop, 6His–PAK4cat 5 mg/ml with 15-fold molar excess of peptide and two times molar excess of ATP, 0.1 M Tris–HCl pH 8.5, 12% PEG 8000, 25 °C, space group P4_(1)2_(1)2; conditions: both partners purified

Binder	Ki [1]	binding result [2]
B1	30 nM	–
B2	–	binds
